Measured values from US20110257076A1 (INDIANA UNIVERSITY RESEARCH AND TECHNOLOGY, published 2011).
Ends that are not written are not given here.

Columns and labels:
human insulin receptor [1] = biological target: T1, human insulin receptor (human, UniProt P06213 28-1382); assay: cell-based or functional assay; parameters: EC50, total phosphorylation, Insulin Receptor (Mar. 31, 2008): unit not given beside the values
human IGF-1 receptor [2] = biological target: T2, human IGF-1 receptor (human, UniProt P08069 31-1367); assay: cell-based or functional assay; parameters: EC50, total phosphorylation, Insulin Receptor (Mar. 31, 2008): unit not given beside the values
human insulin receptor [3] = biological target: T1, human insulin receptor; assay: SPA competition vs [125I]-insulin, membranes with human insulin receptor (Example 3); Dec. 4, 2007
Protocol: (§1) Non-specifically bound (NSB) radioactivity was measured in the wells with a four-fold concentration excess of “cold” native ligand than the highest concentration in test samples. Total bound radioactivity was detected in the wells with no competitor. Percent specific binding was calculated as following: % Specific Binding=(Bound-NSB/Total bound-NSB)×100. IC50 values were determined by using Origin software (OriginLab, Northampton, Mass.).

human insulin receptor [4] = biological target: T1, human insulin receptor; assay: SPA competition vs [125I]-insulin, membranes with human insulin receptor (Example 3); Jun. 5, 2008
Protocol: as §1

human insulin receptor [5] = biological target: T1, human insulin receptor; assay: SPA competition vs [125I]-insulin, membranes with human insulin receptor (Example 3); Nov. 9, 2007
Protocol: as §1

human insulin receptor [6] = biological target: T1, human insulin receptor; assay: SPA competition vs [125I]-insulin, membranes with human insulin receptor (Example 3); May 18, 2007
Protocol: as §1

human insulin receptor [7] = biological target: T1, human insulin receptor; assay: SPA competition vs [125I]-insulin, membranes with human insulin receptor (Example 3); May 22, 2007
Protocol: as §1

human insulin receptor [8] = biological target: T1, human insulin receptor; assay: SPA competition vs [125I]-insulin, membranes with human insulin receptor (Example 3); May 29, 2007
Protocol: as §1

human IGF-1 receptor [9] = biological target: T2, human IGF-1 receptor; assay: SPA competition vs [125I]-IGF-1, membranes with human IGF-1 receptor (Example 3); Jun. 4, 2007
Protocol: as §1

human IGF-1 receptor [10] = biological target: T2, human IGF-1 receptor; assay: SPA competition vs [125I]-IGF-1, membranes with human IGF-1 receptor (Example 3); Sep. 18, 2007
Protocol: as §1

B1: IGF-1 A:B(E10 Y16L17)-E31E32 B-COOH (ligand)
chain 1: GIVDECCFRSCDLRRLEMYCA-NH2
chain 2: GPETLCGAELVDALYLVCGDRGFYFNKPTEE-OH
modifications: disulfide (positions not given here); not fully specified (bridges)
EC50, total phosphorylation, Insulin Receptor (Mar. 31, 2008) (human insulin receptor [1]): 7

B2: IGF-1 A:B (H5D10Y16L17) DPI (ligand)
chain 1: GIVDECCFRSCDLRRLEMYCA-NH2
chain 2: GPEHLCGADLVDALYLVCGDRGFY-NH2
modifications: disulfide (positions not given here); not fully specified (bridges)
% IGF, total phosphorylation, IGF-1 Receptor (human IGF-1 receptor [2]): 7.1%

B3: IGF-1 A (H8 A9 N21):B(H5D10Y16L17 A22) DPI A-COOH (ligand)
chain 1: GIVDECCHASCDLRRLEMYCN-OH
chain 2: GPEHLCGADLVDALYLVCGDAGFY-NH2
modifications: disulfide (positions not given here); not fully specified (bridges)
% IGF, total phosphorylation, IGF-1 Receptor (human IGF-1 receptor [2]): 7.7%

B4: IGF-1 A (H8 A9 N21):B(H5D10Y16L17) DPI A-COOH (ligand)
chain 1: GIVDECCHASCDLRRLEMYCN-OH
chain 2: GPEHLCGADLVDALYLVCGDRGFY-NH2
modifications: disulfide (positions not given here); not fully specified (bridges)
% IGF, total phosphorylation, IGF-1 Receptor (human IGF-1 receptor [2]): 181%

B5: IGF-1 A:B(D10Y16L17) DPI A-COOH (ligand)
chain 1: GIVDECCFRSCDLRRLEMYCA-OH
chain 2: GPETLCGADLVDALYLVCGDRGFY-NH2
modifications: disulfide (positions not given here); not fully specified (bridges)
% Insulin, total phosphorylation, Insulin Receptor (human insulin receptor [1]): 1580% | % IGF, total phosphorylation, IGF-1 Receptor (human IGF-1 receptor [2]): 112% | % native insulin activity (0.6 nM) (human insulin receptor [3]): 300% | % native insulin activity (0.6 nM) (human insulin receptor [4]): 144% | % native insulin activity (0.6 nM) (human insulin receptor [5]): 231%

B6: IGF-1 A:In (1-17)-IGF-1 B (18-30) (ligand)
chain 1: GIVDECCFRSCDLRRLEMYCA-NH2
chain 2: FVNQHLCGSHLVEALYLVCGDRGFYFNKPT-NH2
modifications: disulfide (positions not given here); not fully specified (bridges)
notes: The B chain is a chimera; The conversion is mine
% native insulin activity (0.6 nM) (human insulin receptor [6]): 22.5% | % insulin (in test) (human insulin receptor [7]): 14% | % native insulin activity (0.6 nM) (human insulin receptor [7]): 21.7% | % native insulin activity (0.6 nM) (human insulin receptor [8]): 24.2%

B7: IGF-1 A:B(E10Y16L17) (ligand)
chain 1: GIVDECCFRSCDLRRLEMYCA-NH2
chain 2: GPETLCGAELVDALYLVCGDRGFYFNKPT-NH2
modifications: disulfide (positions not given here); not fully specified (bridges)
% Insulin, total phosphorylation, Insulin Receptor (human insulin receptor [1]): 49.2% | EC50, total phosphorylation, Insulin Receptor (Mar. 31, 2008) (human insulin receptor [1]): 2.57 | % IGF, total phosphorylation, IGF-1 Receptor (human IGF-1 receptor [2]): 13% | % IGF-1 (in test) (human IGF-1 receptor [9]): 6.8% | % native IGF-1 activity (0.55 nM) (human IGF-1 receptor [9]): 7% | % IGF-1 (in test) (human IGF-1 receptor [10]): 5% | % native IGF-1 activity (0.55 nM) (human IGF-1 receptor [10]): 4.5% | % insulin (in test) (human insulin receptor [7]): 58.7% | % native insulin activity (0.6 nM) (human insulin receptor [7]): 90.9% | % native insulin activity (0.6 nM) (human insulin receptor [8]): 118%
